Results taken from patent US20160339092A1 (IMMATICS BIOTECHNOLOGIES, published 2016).

Target: T1, HLA-A*02:01 (human)
T1 construct: complexes captured on streptavidin plates and detected with anti-b2m; also called peptide-receptive MHC molecules
Assay: UV-exchange MHC ELISA; ++ = yield >=20%
Text: Candidate peptides for T cell based therapies according to the present invention were further tested for their MHC binding capacity (affinity). The individual peptide-MHC complexes were produced by UV-ligand exchange, where a UV-sensitive peptide is cleaved upon UV-irradiation, and exchanged with the peptide of interest as analyzed. Only peptide candidates that can effectively bind and stabilize the peptide-receptive MHC molecules prevent dissociation of the MHC complexes. To determine the yield of the exchange reaction, an ELISA was performed based on the detection of the light chain (β2m) of stabilized MHC complexes. The assay was performed as generally described in Rodenko et al. (Rodenko et al., 2006).
96 well MAXISorp plates (NUNC) were coated over night with 2 ug/ml streptavidin in PBS at room temperature, washed 4× and blocked for 1 h at 37° C. in 2% BSA containing blocking buffer. Refolded HLA-A*02:01/MLA-001 monomers served as standards, covering the range of 15-500 ng/ml. Peptide-MHC monomers of the UV-exchange reaction were diluted 100 fold in blocking buffer. Samples were incubated for 1 h at 37° C., washed four times, incubated with 2 ug/ml HRP conjugated anti-β2m for 1 h at 37° C., washed again and detected with TMB solution that is stopped with […]. Absorption was measured at 450 nm. […]

ALLNAILHSA [ALLNAILHSA (SEQ ID NO: 132)]
peptide exchange yield: 20 to 50%
